Measured values from ChEMBL document CHEMBL5244221, “Synthesis and structure-activity relationship studies of cruzain and rhodesain inhibitors” (Eur J Med Chem, 2018).

What was measured:
[1] = substrate: CCCC[C@@H](C(=O)Nc1ccc2c(C)c(CC(=O)O)c(=O)oc2c1)n1cc([C@@](C)(NCc2ccc3ncsc3c2)C(C)C)nn1; test: (§1) Binding affinity to Trypanosoma cruzi Cruzain assessed as Kcat/Km
[2] = substrate: CCCC[C@@H](C(=O)Nc1ccc2c(C)c(CC(=O)O)c(=O)oc2c1)n1cc([C@@](C)(NCc2ccccc2)C(C)C)nn1; test: as §1
[3] = substrate: CCCC[C@@H](C(=O)Nc1ccc2c(C)c(CC(=O)O)c(=O)oc2c1)n1cc([C@@](C)(NCc2ccc(OC)cc2)C(C)C)nn1; test: as §1
[4] = substrate: CCCC[C@@H](C(=O)Nc1ccc2c(C)c(CC(=O)O)c(=O)oc2c1)n1cc([C@@](C)(NCc2ccc3ncccc3c2)C(C)C)nn1; test: as §1
[5] = substrate: CCCC[C@@H](C(=O)Nc1ccc2c(C)c(CC(=O)O)c(=O)oc2c1)n1cc([C@@](C)(NCc2ccc(F)cc2)C(C)C)nn1; test: as §1

B1: Cruzipain (Trypanosoma cruzi), P25779 (protein)
chain: MSGWARALLLAAVLVVMACLVPAATASLHAEETLTSQFAEFKQKHGRVYESAAEEAFRLSVFRENLFLARLHAAANPHATFGVTPFSDLTREEFRSRYHNGAAHFAAAQERARVPVKVEVVGAPAAVDWRARGAVTAVKDQGQCGSCWAFSAIGNVECQWFLAGHPLTNLSEQMLVSCDKTDSGCSGGLMNNAFEWIVQENNGAVYTEDSYPYASGEGISPPCTTSGHTVGATITGHVELPQDEAQIAAWLAVNGPVAVAVDASSWMTYTGGVMTSCVSEQLDHGVLLVGYNDSAAVPYWIIKNSWTTQWGEEGYIRIAKGSNQCLVKEEASSAVVGGPGPTPEPTTTTTTSAPGPSPSYFVQMSCTDAACIVGCENVTLPTGQCLLTTSGVSAIVTCGAETLTEEVFLTSTHCSGPSVRSSVPLNKCNRLLRGSVEFFCGSSSSGRLADVDRQRRHQPYHSRHRRL
Work on B1 yielded a kcat/Km [1] of 19, a kcat/Km [2] of 3.5 and a kcat/Km [3] of 6.5. The kcat/Km [4] was 19 and the kcat/Km [5] was 4.
